Results on two molecules are retold here after patent US10093706, “Dominant positive hnRNP-E1 polypeptide compositions and methods” (Indiana University Research and Technology Corporation).

One series concerns the target hnRNP-E1(G292A) (Homo sapiens, UniProt Q15365 SEQ:1-356, G292A). The series is described as follows: no L-homocysteine; Scatchard; no gel-shift signal in this condition (FIG. 1B). The settings on record: tags: GST fusion (pGEX-4T-1, E. coli BL21); label: 35S. On the procedure:
(§1) Specific binding was determined by subtracting values of non-specific binding with GST from those of total binding with GST-hnRNP-E1; (however, in Table 1 and FIG. 6G, non-specific binding using bovine serum albumin (BSA) was subtracted from total binding to GST-hnRNP-E1 to determine specific binding). The K_D was calculated from a Scatchard plot using GraphPad Prism 6 from GraphPad Software (San Diego, Calif.), as previously described in the art.

Another series concerns the target hnRNP-E1(C293S) (Homo sapiens, UniProt Q15365 SEQ:1-356). As to the kind of experiment: no L-homocysteine; Scatchard. The settings on record: tags: GST fusion (pGEX-4T-1, E. coli BL21); label: 35S. Here is the method:
as §1

In series [1] the target is hnRNP-E1 (PCBP1) wild-type (Homo sapiens, UniProt Q15365 SEQ:1-356). The series is described as follows: EMSA; 15 uM L-homocysteine; complete quenching of signal. The settings on record: tags: GST fusion (pGEX-4T-1, E. coli BL21).
Sequence of hnRNP-E1 (PCBP1) wild-type (Q15365 whole entry A205V, the tested form may be a part): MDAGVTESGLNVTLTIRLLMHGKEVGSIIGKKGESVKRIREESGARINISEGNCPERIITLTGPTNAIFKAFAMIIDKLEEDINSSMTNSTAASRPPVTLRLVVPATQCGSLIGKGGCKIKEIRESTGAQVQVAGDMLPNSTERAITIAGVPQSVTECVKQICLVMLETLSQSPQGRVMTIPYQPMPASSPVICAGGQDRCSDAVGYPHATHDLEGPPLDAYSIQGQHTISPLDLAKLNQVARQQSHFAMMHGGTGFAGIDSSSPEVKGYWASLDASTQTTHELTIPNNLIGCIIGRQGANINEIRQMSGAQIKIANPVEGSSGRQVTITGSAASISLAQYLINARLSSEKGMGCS

Sequence of hnRNP-E1(G292A) (Q15365 whole entry A205V/G292A, the tested form may be a part): as the sequence (Q15365 whole entry A205V, the tested form may be a part) above, with G292A counted along it
Sequence of hnRNP-E1(C293S) (Q15365 whole entry A205V/C293S, the tested form may be a part): as the sequence (Q15365 whole entry A205V, the tested form may be a part) above, with C293S counted along it

Regarding CUCCCGCCCGCUCCCGCUCGCUCCC (ssRNA) [25-nt hnRNP-E1 mRNA 5'-UTR cis-element], the Kd came to 2.02 nM with hnRNP-E1(G292A) and 0.39 nM with hnRNP-E1(C293S).
Regarding CUUCCGCCCGCUCCCGCUCGCUUCC (ssRNA) [25-nt cis-element mutation 6], in series [1], the binding result was “no binding”.
